Source: article PMC11088704, “Structural basis for the regulation of plant transcription factor WRKY33 by the VQ protein SIB1” (Communications Biology, 2024)

Experiments:
WRKY33_C;SIB1mini = WRKY33_C;SIB1mini (Arabidopsis thaliana;Arabidopsis …, UniProt Q8S8P5;Q9LDH1 345-422;46-69, |); test: EMSA; SIB1mini present; Kd not fittable; EMSA: NMR buffer (composition not given in material) with 100 mM NaCl, 1.0 ng dsDNA in 20 ul, room temperature 20 min, SIB1:WRKY33_C 2:1; gel in 0.5x TBE, GelRed stain; conditions: tags: C-terminal 6xHis;; copies: 1;1; blunt
Sequence of WRKY33_C;SIB1mini (Q8S8P5 345-422, chain 1 of 2): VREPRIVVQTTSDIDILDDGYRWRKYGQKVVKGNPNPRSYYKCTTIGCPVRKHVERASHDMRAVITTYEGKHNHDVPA
Sequence of WRKY33_C;SIB1mini (Q9LDH1 46-69, chain 2 of 2): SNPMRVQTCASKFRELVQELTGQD

[1] = molecular target: WRKY33_C;SIB1 (SIB1 11-100) (Arabidopsis thaliana;Arabidopsis …, UniProt Q8S8P5;Q9LDH1 345-422;11-100, |); test: EMSA; SIB1:WRKY33_C 2:1; ternary complex; Kd not fittable; EMSA: NMR buffer (composition not given in material) with 100 mM NaCl, 1.0 ng dsDNA in 20 ul, room temperature 20 min, SIB1:WRKY33_C 2:1; gel in 0.5x TBE, GelRed stain; conditions: protein: recombinant;recombinant; tags: C-terminal 6xHis;C-terminal 6xHis; copies: 1;1; blunt
Sequence of WRKY33_C;SIB1 (SIB1 11-100) (Q8S8P5 345-422, chain 1 of 2): as the sequence (Q8S8P5 345-422, chain 1 of 2) above
Sequence of WRKY33_C;SIB1 (SIB1 11-100) (Q9LDH1 11-100, chain 2 of 2): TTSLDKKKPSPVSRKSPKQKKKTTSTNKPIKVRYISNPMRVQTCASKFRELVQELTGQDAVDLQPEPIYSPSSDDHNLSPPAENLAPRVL

B1: W-box DNA (dsDNA)
DNA 1: AAAGTTGACCAA
DNA 2: TTGGTCAACTTT
binding signal (WRKY33_C;SIB1mini): ~95 % DNA bound at 1:1 molar ratio (WRKY33 alone ~80%)
binding signal [1]: ~95 % DNA bound at 1:1 molar ratio (WRKY33_C alone ~80%)
